Data taken from patent US20230303719, “HUMANIZED 3E10 ANTIBODIES, VARIANTS, AND ANTIGEN BINDING FRAGMENTS THEREOF” (YALE UNIVERSITY, published 2023).

Assays:
[1] = molecular target: 3E10-D31N (chimeric, murine VH/VL); experiment: BLI; 1:1 model; antibody on AHC2 sensor; ka 2.29E5, kdis 4.76E-4; conditions: tags: human Fc IgG; chain copies: 2 heavy + 2 light (inferred); hairpin
[2] = molecular target: humanized 3E10 V66 (HEK293) (synthetic construct, UniProt P01857; SEQ:1-446,SEQ:1-218); experiment: BLI; 1:1 model; antibody on AHC2 sensor; ka 2.42E5, kdis 3.13E-4; conditions: tags: human Fc IgG; transiently expressed in HEK293; chain copies: 2 heavy + 2 light (inferred); hairpin
humanized 3E10 V66 (HEK293), sequence (P01857 other isoform, or with tags, fused parts or gaps, chain 1 of 2): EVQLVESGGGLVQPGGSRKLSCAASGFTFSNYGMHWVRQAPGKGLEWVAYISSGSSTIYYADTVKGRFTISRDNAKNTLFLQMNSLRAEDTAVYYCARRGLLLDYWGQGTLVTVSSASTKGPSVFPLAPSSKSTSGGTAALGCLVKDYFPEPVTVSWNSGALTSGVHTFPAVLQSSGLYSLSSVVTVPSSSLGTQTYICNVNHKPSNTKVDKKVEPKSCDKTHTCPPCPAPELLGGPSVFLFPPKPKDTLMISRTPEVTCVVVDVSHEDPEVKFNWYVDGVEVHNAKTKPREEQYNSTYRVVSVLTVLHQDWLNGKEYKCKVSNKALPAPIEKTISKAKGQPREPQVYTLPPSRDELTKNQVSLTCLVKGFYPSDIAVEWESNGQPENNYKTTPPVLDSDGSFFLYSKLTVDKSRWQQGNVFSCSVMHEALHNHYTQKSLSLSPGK
humanized 3E10 V66 (HEK293), sequence (chain, as listed by the source, chain 2 of 2): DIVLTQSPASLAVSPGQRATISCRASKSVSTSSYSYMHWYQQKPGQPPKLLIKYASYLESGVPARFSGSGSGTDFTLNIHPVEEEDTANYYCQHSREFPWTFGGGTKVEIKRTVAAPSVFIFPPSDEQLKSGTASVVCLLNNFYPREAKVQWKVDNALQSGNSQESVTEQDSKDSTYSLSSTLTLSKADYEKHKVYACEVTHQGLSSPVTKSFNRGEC

[3] = molecular target: humanized 3E10 V66 (CHO) (synthetic construct, UniProt P01857; SEQ:1-446,SEQ:1-218); experiment: BLI; 1:1 model; antibody on AHC2 sensor; ka 3.08E5, kdis 7.99E-4; conditions: tags: human Fc IgG; transiently expressed in CHO; chain copies: 2 heavy + 2 light (inferred); hairpin
humanized 3E10 V66 (CHO), sequence (P01857 other isoform, or with tags, fused parts or gaps, chain 1 of 2): as the sequence (P01857 other isoform, or with tags, fused parts or gaps, chain 1 of 2) above
humanized 3E10 V66 (CHO), sequence (chain, as listed by the source, chain 2 of 2): as the sequence (chain, as listed by the source, chain 2 of 2) above

[4] = molecular target: 3E10-D31N IgG4 S228P/F234A/L235A/M252Y/S254T/T256E (synthetic construct, UniProt P01861; SEQ:1-443,SEQ:1-218); experiment: BLI; 1:1 model; antibody on AHC2 sensor; RNA 62.5-500 nM; conditions: tags: human IgG4 Fc; chain copies: 2 heavy + 2 light (inferred); hairpin
[5] = molecular target: 3E10-D31N IgG4 S228P/F234A/L235A (synthetic construct, UniProt P01861; SEQ:1-443,SEQ:1-218); experiment: as above; conditions: tags: human IgG4 Fc; chain copies: 2 heavy + 2 light (inferred); hairpin
[6] = molecular target: 3E10-D31N IgG4 S228P/F234A/L235A/T307Q/N434A (synthetic construct, UniProt P01861; SEQ:1-443,SEQ:1-218); experiment: as above; conditions: tags: human IgG4 Fc; chain copies: 2 heavy + 2 light (inferred); hairpin
[7] = molecular target: 3E10-D31N IgG4 S228P/F234A/L235A/H310Q (synthetic construct, UniProt P01861; SEQ:1-443,SEQ:1-218); experiment: as above; conditions: tags: human IgG4 Fc; chain copies: 2 heavy + 2 light (inferred); hairpin
[8] = molecular target: 3E10-D31N (chimeric, murine VH/VL); experiment: as above; conditions: tags: human Fc IgG; chain copies: 2 heavy + 2 light (inferred); hairpin

B1: 3p-hpRNA RIG-I agonist (89 nt) (ssRNA)
RNA: GGAGCAAAAGCAGGGUGACAAAGACAUAAUGGAUCCAAACACUGUGUCAAGCUUUCAGGUAGAUUGCUUUCUUUGGCAUGUCCGCAAAC
modifications: 5'-triphosphate
Kd [1]: 2.08 nM
Kd [2]: 1.3 nM
Kd [3]: 2.6 nM
Kd [4]: 5 nM
Kd [5]: 3.33 nM
Kd [6]: 12.7 nM
Kd [7]: 6.58 nM
Kd [8]: 10.5 nM
